The values below come from patent US20200339680A1 (Alector, published 2020).

Test [1] concerns the target T1, human TMEM106B (human, UniProt Q9NUM4 2-274).
T1 construct: full-length, transiently expressed on HEK293 cells, or natively expressed on HeLa, U251 and A549 cells (the cell is named under assay); also the source of the Pepscan peptides; also called huTMEM106B; huTMEM
The test can be described thus: FACS HeLa.

Test [2] deals with T1, human TMEM106B. The test can be described thus: FACS U251.
The target in test [3] is T1, human TMEM106B. Briefly: FACS A549.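 Note: flow cytometry of cells incubated on ice for 1 h with hybridoma supernatant or purified antibody at 10 µg/mL, dead propidium iodide-positive cells gated out.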
Protocol: (§1) All cells were cultured in either T75 or T150 flasks. […] The enzyme was quenched by addition of fresh media, and the cells were then distributed into 96-well plates for FACS analysis.
(§2) FACS analysis was performed as follows. Each cell type was aliquoted in 96-well round bottom plates (2×10^5 cells per well), washed once with FACS buffer (PBS+2% FBS+1 mM EDTA), and incubated with 50 μL of hybridoma supernatant or purified antibody (10 μg/ml in FACS buffer) on ice for 1 hour. […] Following this secondary incubation, the cells were again washed 2× with ice-cold FACS buffer and resuspended in a final volume of 50 μL of FACS buffer+0.25 μl/well propidium iodide (Fisher Scientific #4BDB556463). Analysis was performed on a FACSCanto system (BD Biosciences) or iQue (Intellicyt), with sort gates drawn to exclude dead (i.e., propidium iodide positive) cells.
In test [4] the target is T1, human TMEM106B. Briefly: FACS A549 1 ug/ml.
Protocol: (§3) Purified anti-TMEM106B antibodies were evaluated for their binding affinity to various TMEM106B-expressing cell lines including HEK293 transiently transfected with human/cyno/mouse TMEM106B, as well as HeLa cells and A549 cells. Antibodies tested for this experiment were mouse IgGs purified from hybridoma supernatant. Affinity binding to cells was determined as follows. Briefly, 1×10\hat{ }5 cells were aliquoted per well in 96-well round bottom plates and incubated with 50 μL of purified anti-TMEM106B antibody at various concentrations (10× dilutions starting at 10 μg/ml) in FACS buffer (PBS+2% FBS+1 mM EDTA). […] Sorting was performed on a iQue (Intellicyt), with sort gates drawn to exclude dead (propidium iodide+) cells. Binding data was analyzed using median fluorescent intensity (MFI) and graphed in Prism. Values presented are MFI.
Test [5] has as its target T1, human TMEM106B. Briefly: FACS HEK+huTMEM 0.1 ug/ml.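 Note: flow cytometry binding of purified mouse IgG antibodies to HEK293 cells transiently expressing TMEM106B, read as median fluorescence intensity on live cells (propidium iodide negative gating).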
Protocol: as §3
Test [6] addresses T1, human TMEM106B. The test can be described thus: FACS HEK+huTMEM 0.1 ug/ml (2nd column so headed).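 Note: flow cytometry binding of purified anti-TMEM106B mouse IgG to HEK293 cells transiently transfected with TMEM106B, read as median fluorescence intensity on live (propidium iodide-negative) cells.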
Protocol: as §3
In test [7] the target is T1, human TMEM106B. The test can be described thus: FACS HEK+huTMEM 10 ug/ml.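 Note: flow cytometric binding of purified mouse IgG antibodies to HEK293 cells transiently expressing human TMEM106B, read as median fluorescence intensity on live cells with propidium iodide-positive cells excluded.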
Protocol: as §3
Test [8] deals with T1, human TMEM106B. The test can be described thus: FACS HEK+huTMEM 1.0 ug/ml.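 Note: binding of purified mouse IgG antibodies to HEK293 cells transiently expressing human TMEM106B, read by flow cytometry as median fluorescence intensity of live, propidium iodide-negative cells.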
The target in test [9] is T2, mouse TMEM106B (mouse, UniProt Q80X71 2-275).
T2 construct: transiently expressed on HEK293 cells, or native on mouse Neuro2a cells; also called moTMEM106B; murine TMEM106B
The test can be described thus: FACS Neuro2a.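 Note: flow cytometry of antibody binding to cells: hybridoma supernatant or purified antibody at 10 µg/ml, 1 h on ice, secondary detection, propidium iodide–positive dead cells gated out.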
Protocol: as §1, §2

Test [10] deals with T1, human TMEM106B. Briefly: FACS A549 10 ug/ml.
Protocol: as §3

B1: TM-23 (antibody, V domains shown)
VH: QVQLQQSGAELIRPGTSVKVSCKASGYAFTNYLIEWVKKRPGQGLEWIGVINPGSGITNYNEKFKGKATLTADKSSSTAYMQLSSLTSEDSAVYFCARSDFITTVVADYWGQGTTVTVSS
VL: DIVVTQTPLSLPVSFGDQVSISCRSSQSLTNYYGNTYLSWYLHKPGQSPQLLIYGISNRFSGVPDRFSGSGSGTDFTLKISTIKPEDLGMYYCLQGTHQPRTFGGGTKLEIK
With B1, the MFI came to 308 MFI in test [1]; 278 MFI in test [2]; 1090 MFI in test [3]; 398 MFI in [4]; 2410 MFI in test [5]; 1100 MFI in test [6]. For the same molecule, the MFI in test [7] worked out at 12400 MFI; in test [8], 3900 MFI; in test [9], 333 MFI; in [10] it was 757 MFI.

B2: TM-26 (antibody, V domains shown)
VH: QVQLQQSGAELIRPGTSVKVSCKASGYAFTNYLIEWVKKRPGQGLEWIGVINPGSGITNYNEKFKGKATLTADKSSSTAYMQLSSLTSEDSAVYFCARSDFITTVVADYWGQGTTVTVSS
VL: DIVVTQTPLSLPVSFGDQVSISCRSSQSLTNYYGNTYLSWYLHKPGQSPQLLIYGISNRFSGVPDRFSGSGSGTDFTLKISTIKPEDLGMYYCLQGTHQPRTFGGGTKLEIK
For B2, the MFI in test [1] was 384 MFI; in test [2], 300 MFI; in [3] it was 952 MFI; in [4], 380 MFI; in test [5] it was 1960 MFI; in test [6], 1000 MFI. Also, the MFI was 3850 MFI in test [7], 3340 MFI in test [8], 324 MFI in [9] and 509 MFI in test [10].

B3: TM-22 (antibody, V domains shown)
VH: QVQLQQSGPELVKPGASVKISCKASGYRFTSYYIHWVKQRPGQGLEWIGWIYPGNGITNYNEKFKGKATLTADTSSSTAYMQLSSLTSEDSAVYYCASPYYGIRNCYFDVWGTGTTVTVSS
VL: DVLMTQTPLSLPVSLGDHASISCRSGQSIVHSNGNTYLEWYLQKPGQSPKLLIYKVSNRFSGVPDRFSGSGSGTDFTLKISRVEAEDLGIYYCFQGSHVPWTFGGGTKLEIK
For B3, the MFI in test [1] was 408 MFI; in test [2], 313 MFI; in test [3], 1570 MFI; in test [4] it was 399 MFI; in [5], 833 MFI; in test [6] it was 500 MFI. Also, the MFI came out at 3580 MFI in test [7], 2100 MFI in test [8], 400 MFI in test [9] and 478 MFI in test [10].

B4: TM-35 (antibody, V domains shown)
VH: QVQLQQSGPELVRPGTSVKISCKAPGYTFTRHWMQWVRQRPGQGLEWIGEILPGSNNIYYNEKVKGKATLTVDTSSSTSYMQLSSLTSEDSAVYFCARSLYDYDGVFAYWGQGTLVTVSA
VL: DVLMTQIPLSLPVSLGDQASISCRSSQSIVHRNGNTYLEWYLQKPGQSPKLLIYKVSNRFSGVPDRFSGSGSGTDFTLKISRVEAEDLGVYYCFQGSHVPYTFGGGTKLEIK
As for B4, the MFI in test [1] stood at 241 MFI; in test [2], 370 MFI; in [3], 982 MFI; in [4], 3270 MFI; in test [5], 22600 MFI; in test [6], 4080 MFI. The MFI in test [7] turned out to be 48700 MFI; in test [8], 55400 MFI; in test [9], 181 MFI; in [10] it was 4200 MFI.

B5: TM-28 (antibody, V domains shown)
VH: EVQLQQSGPVLVKPGPSVKISCMASVFTFNDYYIHWVKQSHGKSLEWIGLVYPYNGGTNYNQNFKGKATLTVDTSSRTAYMELNSLTSEDSAVYYCARSYFSNPIGYWGQGTLVTVSE
VL: DIVMTQSPSSLSVSVGEKVTVSCKSSQSLLNSGNQKNYLAWYQQKPGQPPKLLIYGASTRESGVPDRFTGSGSGTDFTLTISSVQAEDLAVYYCQNDHSYPLTFGAGTKLELK
Consider B5, for which the MFI in [1] was 2790 MFI; in [2], 998 MFI; in test [3] it was 2000 MFI; in [4], 2630 MFI; in [5], 19800 MFI; in test [6], 3340 MFI. The MFI in [7] is 64800 MFI; in test [8], 66400 MFI; in test [9] it was 2740 MFI; in test [10] it was 4350 MFI.

B6: TM-33 (antibody, V domains shown)
VH: EFQLQQSGPELVKPGASVKISCKASGYSFTDYNMNWVKQSNGKSLEWIGVINPNYGTTSYNQKFKGKATLTVDQSSSTAYMQLNSLTSEDSAVYYCASSYWGQGTLVTVSA
VL: DIVMTQSQKFMSTTVGDRVSITCKASQNVGTAVAWYQQKPGQSPKLLIYSASNRYTGVPDRFTGSGSGTDFTLTISNMQSEDLADYFCQQYSSYPYTFGGGTKLEIK
notes: mouse IgG (hybridoma)
On to B6, for which the MFI is 148 MFI in [1]; 202 MFI in [2]; 298 MFI in test [3]; 366 MFI in [4]; 1750 MFI in test [5]; 651 MFI in test [6]. The MFI in [7] was 12100 MFI; in test [8], 5630 MFI; in test [9] it was 233 MFI; in [10], 514 MFI.

B7: TM-27 (antibody, V domains shown)
VH: QVQLQQSGAELVRPGTSVKVSCKASGYALTNYLIEWVKQRPGQGLEWIGVINPGSGSTKYNEKFKGKATLTADKSSSTAYMQLSSLTSEDSAVYFCARIIYDHDWYFDVWGTGTTVTVSS
VL: QIVLTQSPAIMSASPGEKVTISCSASSSISYMYWYQQKPGSSPKPWIYRTSTLASGVPARFSGSGSGTSYSLTISSMEAEDAATYYCQQYHSYPRTFGGGTKLEIK
For B7, the MFI was found to be 2960 MFI in test [1]; 1320 MFI in test [2]; 1930 MFI in test [3]; 431 MFI in test [4]; 1700 MFI in test [5]; 744 MFI in test [6]. In addition, the MFI stood at 4140 MFI in test [7], 3040 MFI in test [8], 1580 MFI in test [9] and 622 MFI in test [10].

B8: TM-25 (antibody, V domains shown)
VH: EVQLVESGGDLVKPGGSLRLSCAASGFTFSGYGMSWIRQTPDKRLEWVATISSGGRYTVYPDSVKGRFTMSRDNVKNTLYLQMSSLKSEDTALYYCARDNFYSYAMDYWGLGTSVTVSA
VL: DIVMTQAAFSNPVTLGTSASISCRSSKSLLHSNGITYLFWYLQKPGQSPQLLIYQMSNLASGVPDRFSSSGSGTDFTLRISRVEAEDVGVYYCAQNLELWTFGGGTKLEIK
On to B8, for which the MFI in test [1] amounted to 2560 MFI; in test [2] it was 1110 MFI; in test [3], 1700 MFI; in test [4] it was 4530 MFI; in test [5] it was 32800 MFI; in test [6], 4310 MFI. In addition, the MFI in test [7] was found to be 60300 MFI; in test [8] it was 64700 MFI; in test [9] it was 354 MFI; in test [10], 7000 MFI.

B9: TM-42 (antibody, V domains shown)
VH: QVQLQQSGAELAKPGASVKLSCKASGYTFTNYWMHWVKKRPGQGLEWIGYINPSSGYTKYNQKFKDKATLTADKSSNTAYMQLSSLTYEDSAVYYCTREGGSISDWYFDVWGTGTTVTVSS
VL: DIVMTQAAPSLPVTPGESVSISCRSSKSLLHSNGNTYLYWFLQRPGQSPQLLIYRMSNLASGVPDRFSGSGSGTAFTLRISRVEAEDVGVYYCMQHLEYPYTFGGGTKLEIK
Consider B9, for which the MFI worked out at 215 MFI in test [1]; 326 MFI in [2]; 947 MFI in test [3]; 1780 MFI in test [4]; 16700 MFI in [5]; 2070 MFI in test [6]. The MFI in test [7] was 60100 MFI; in test [8], 58100 MFI; in [9], 237 MFI; in [10], 3300 MFI.

B10: TM-37 (antibody, V domains shown)
VH: QVQLQQSGAELAKPGASVKLSCKASGYTFTSYWMHWVKQRPGQGLEWIGYVNPSSGYTKNNQKFKDKVTLTADKSSSTAYMQLSSLTYEDSAVYYCAREGGSISDWYFDVWGTGTTVTVSS
VL: DIVMTQAAPSVPVTPGESVSISCRSSKSLLHSNGNTYSYWFLQRPGQSPQLLIYRMSNLASGVPDRFSGSGSGTAFTLRISRVEAEDVGVYYCMQHLEYPYTFGGGTKLEIK
In the case of B10, the MFI was found to be 254 MFI in test [1]; 408 MFI in test [2]; 1040 MFI in [3]; 2980 MFI in test [4]; 29400 MFI in [5]; 3920 MFI in test [6]. For the same molecule, the MFI worked out at 50500 MFI in test [7], 58700 MFI in test [8], 208 MFI in test [9] and 4210 MFI in [10].

B11: TM-29 (antibody, V domains shown)
VH: QVQLRQSGAELVRPGASVKLSCKASGYTFTDYYINWVKQRPGQGLEWIARIYPGSGYTYYNEKFKGKATLTAEGSSNTAYMQLSSLTSEDSAVYFCANHYTNPFAYWGQGTLVTVSA
VL: DIVMTQAAFSNPVTLGTSASISCRSSKSLLHYNGITYLYWYLQKPGQSPQLLIYQMSNLASGVPDRFSSSGSGTDFTLRISRVEAEDVGVYYCAQNLELPYTFGGGTKLEIK
As to B11, the MFI in test [1] worked out at 1650 MFI; in test [2], 730 MFI; in test [3] it was 1410 MFI; in [4], 2480 MFI; in test [5] it was 24400 MFI; in [6], 4050 MFI. For the same molecule, the MFI in test [7] stood at 61200 MFI; in test [8] it was 63300 MFI; in test [9], 1480 MFI; in test [10], 4200 MFI.
